Data on 113 substances can be found in the supplement of paper PMC11502859.

Values joined by “and” are separate entries in the source; they are usually repeats but may differ in a detail not shown here. Identical values can stand only once.
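Also: lentiviral eGFP-IRES-mCherry reporter pool sorted by FACS 96 h post-transduction, gated on mCherry-high cells, Illumina read counts normalized per million, median across four biological replicates.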

The series relates to HEK293T. Kind of series: median enrichment of reporter reads in eGFP-reduced (low/intermediate) vs eGFP-high sorted cells (eGFP-extension fusion abundance) (ratio); higher = stronger loss of eGFP-fusion protein abundance (more destabilising extension).
Turning to “WWWRHAQWMILLLPATSTSRNESLGGCQELVLAPPPP [MAP4K1]”, the median enrichment amounted to 13. As to WWWW [Trp04], the median enrichment was 7.39. The same measure for WWWWW [Trp05]: 7.38; for WWWWWW [Trp06]: 3.74.

On to WWWWWWW [Trp07], for which the median enrichment was determined as 3.21.

WWWWWWWW [Trp08]: the median enrichment was 4.57.

As for WWWWWWWWW [Trp09], the median enrichment is 3.84. Turning to WWWWWWWWWW [Trp10], the median enrichment turned out to be 4.65. Turning to WYHMFSWYVN [ABHD10], the median enrichment is 5.5. On to WYSFHYSI [BTN3A3], for which the median enrichment was 6.28.

Turning to WYTF [PNISR], the median enrichment is 2.74. Turning to YAAIDSRSLYTVTSEDYT [SLC46A3], the median enrichment worked out at 6.41.

As for “YAATAKKNRVRKLLGWVDLGIFYLVKALYSHRRKIWDISIIYILI [RFPL3]”, the median enrichment was 45.1. With YAATDLGHLSQLAHPPPLPNFRYLSILLK [FBXL6], the median enrichment came to 5.29. Take YAKSRCTQHVLGMQPQEVPDLKQPDSYLA [GREM1]: the median enrichment came to 22.9.

Take YALDKNLNRKNNSKAYLMKQ [CYLC2]: the median enrichment was 2.34. Then YALGKKDCNQRKSIGVEEIKLTLFWLFF [GLI3], with 23.4; and “YALNINSVLQIFITYLLQSQNPKIFIKSKYLMSFEGSLSYTK [C10orf88]”, with 1.47. The same measure for “YALPSWPLISAWVDHPRLQRVEGGSSSWESF [TMEM214]”: 7.05; for YAPL [SLC3A1]: 0.632; for YAPRR [OTUD6A]: 0.578. Regarding “YAQLAICKVTSAKFSFGSYPRAPMSSYQEVINVTPFHRLKGVITLLLG [PAFAH2]”, the median enrichment amounted to 4.37.

For the substance YAQP [MST1], the median enrichment is 0.278. As to “YAQPGPQIRSAQQRPGPSSRTTRPHHASCSQTQN [CCDC27]”, the median enrichment was 0.132. The same measure for YARWLRNTGEASAFGKEICFGDDLSGNLNLLL [GBA3]: 5.41; for “YASHLASWVCRSSRLAPSMYPGEIPARHPPPGPG [LSP1]”: 4.74. As for YASLAAGTSTWRS [CRB2], the median enrichment came to 2.41. Regarding “YASRRRRRRGRAAGGTAQATQGRPLRPGGQGGRPASGDRLPPGLWQDVPSEGYFEEPPGPGDREAPVSSMNALPRTQARASGV [MSANTD1]”, the median enrichment was found to be 1.01. Take “YATRRCPRPSRRRGSLAGAAPPCVRPAGAHVF [HHIPL1]”: the median enrichment came out at 11.3. Turning to YAVGTESEYF [GFRA2], the median enrichment came out at 0.617. The same measure for YAVQSSFSGA [NLRP8]: 5.86. Then YCLKGFY [GNL2], with 8.39; and “YCLRGRLAASPAPPDLAPRAAAGAAACPGPPLRPASSRRPGAQPCAAEDSRDWRRPRPATAGARGHLPGLLTLSPHWEWAPRG [TMUB1]”, with 5.27; and YCLSILVHGCFERYGRQSPGHN [MAGEC3], with 5.24. Then YCPGVCCLAHMSLL [CLSTN2], with 19.2; and YCPRAHRQLQGALVANKQHL [RAB3C], with 2.13.

On to YCRREVSSLCLVCNSSWA [REG3A], for which the median enrichment was determined as 7.13.

On to YDFQKTLILFLKL [PRDM1], for which the median enrichment stood at 8.51. Then “YDGAVTERTQESGTPPGIPSTFSCSWERPGGGAHWEGQDSVPALILPCPDVSCFAQRSFLSTPLIPRLVPREGWRPGHGPSRR [ASIC4]”, with 4.69; and YDGGQIKVLAFRCL [KCNMB3], with 9.29.

Turning to YDGHISFIGE [CFLAR], the median enrichment stood at 0.753. The same measure for YDGR [ZNF772]: 0.299. The same measure for YDHPTTRSAANSGLSLGVAPSLLLPLN [TRIB3]: 6.29; for YDHSGQDHSGHGHGHSHGGHGHSH [S100A9]: 0.275. The same measure for YDLEFC [PQLC2L]: 0.999; for YDLIQHRNDSH [IFNA6]: 0.697. Take “YDPCGRPLPPSHRLPHHSCLVLGRPHCALALGLPSLLQQGTGALARVTD [GTF3C1]”: the median enrichment was determined as 6.87.

As for YDSISP [CBLN4], the median enrichment was found to be 0.384. Take YDSLVL [ALDH5A1]: the median enrichment came to 0.258.

Regarding YDSNPDPGLIFQSPPSCGTASVC [NFKBID], the median enrichment is 4.34. YDSPGLKLGSRPAR [PTGDS]: the median enrichment is 3.48. The same measure for YDTP [CD1A]: 0.395; for YDVMLAGSPPLDPDSYG [SH3GL2]: 0.593; for YDVQRRLNKCTAE [VPS33A]: 0.744. Take YEAPS [OR1L8]: the median enrichment is 1.07. In the case of YEAVMRMVL [SETDB1], the median enrichment was 4.84 and 3.68.

On to YEDPPEE [IGF1], for which the median enrichment turned out to be 2.17.

As for YEERDYLHIKNI [SLC35B1], the median enrichment was 0.713.

For the substance “YEEVSATSPPEPAVIFTAPAHLSPTCSFDPWTWYTSMWSCWARGVLCAVNSVGSCSGVGARFLPPWAEGPFPLVLCPHPPPFS [KLHDC3]”, the median enrichment was 5.82.

On to “YEGPSRRATQATVPVPAFPTPAVAPPHPLPLFVPFDERLFTGVGWRDGLEGAQSIRLQGPSWEK”, for which the median enrichment is 2.44. With YEHLDQVEKGTLSLVCGKQHLQEI [XKR6], the median enrichment was 0.3. Then YEHLVKTRPSGPTMSAPSRGRDMACHSS [ITGB2], with 0.9; and “YEISLPGWEERKWGCPGETRNLPSPGWGQGLC [HOXB13]”, with 3.71. Take YEKCVVCGADSGHHVDSLALPQATSPGTIFLP [BTD]: the median enrichment amounted to 2.26.

For YEKHFGILSIMILCYRHRECCIQ [FASLG], the median enrichment turned out to be 3.75. Then YELEQLGNKLSTSRHLLSFAMCLMP [OR51A7], with 3.52; and YELNKNKIQV [CXorf66], with 0.339. For the substance YELWGAHTPQSS [IL17A], the median enrichment turned out to be 1.09. For the substance YEPEYSR [GBP4], the median enrichment turned out to be 0.833. For the substance “YEPYSFKPYVFLCAFFPYPSSLALPFLNTAAL [UBQLN3]”, the median enrichment turned out to be 7.8.

Regarding YEQCIT [DCTN6], the median enrichment amounted to 2.67. Take “YEQGGLGWPSPGGCGWGQETQPTTAPVSSPHKAAWVCTVCKLQDTLPGDPRGHSYTLFTRKIQRSQ [C2orf50]”: the median enrichment worked out at 9.09. In the case of YEYA [BOD1L2], the median enrichment was 0.662. As to YFFHKIC [CCDC102B], the median enrichment is 10.6. In the case of YFFI [ATP2B1], the median enrichment is 9.67. For “YFFLELKHPRMPLHVFHSPHLQTSLLFLTRPESKLPSLGNSGEGVSCTTYHTPSHPVSDFGMDSGKLGPSLNRVMYLNVCYFQ [HSPA1L]”, the median enrichment was 10.9. The same measure for YFLSVILP [GLB1L3]: 8.25. For YFMSFSISAADLC [DNAJC6], the median enrichment was 25.5.

With YFNLCNLTNFHDK [NUP107], the median enrichment came out at 9.37. In the case of YFSPFFSPEMKTTSPLSLWKQSSVLHTTRC [ARL1], the median enrichment was 11.4. As for “YFTIKVKQRKLYAGHICMRIQLFSGCSTTK [TMPRSS11A]”, the median enrichment turned out to be 9.64. Regarding “YFVLRTDFLPIPFLNIQRLYWPVSFYFFPPDKYFRS [STMN1]”, the median enrichment came to 15.2.

As for “YGAKRCLSEVGHFLKIQIFISLFRHGCLQVFHCLLLLEI [TMEM246]”, the median enrichment is 19.9.

Turning to YGAPTFDFYLSSSWIF [HMGA2], the median enrichment came out at 9.36.

YGDFPVQ [GPALPP1]: the median enrichment is 0.42. Then YGDNSPVSKPGCQIQ [KIR3DL2], with 3.37; and YGEKIRNGCCT [WDR64], with 0.76; and YGF [ITSN2], with 0.445.

Take YGFHKHP [SELP]: the median enrichment came to 1.36. Take YGFKTFLLHSTNLTSF [SNED1]: the median enrichment was found to be 33.4. The same measure for YGFLGFPSWACLLKA [CSF3R]: 5.35; for “YGFSPFGDHLSVSPTHYPICPPPQLGPRGPTLHFWGVTDFVHGFKVYFYGLVIAEFLFWGEGKGASPLLLALRPRRLLCAANC [TSPYL2]”: 5.92; for YGFVVQD [EPM2AIP1]: 0.381. The same measure for YGGPVGEPGDSRV [CHRND]: 0.405; for YGIRLSCFKNVRESHILLMANCYINGNT [CBWD1]: 1.39; for YGLAKAPIEALCQ [PITHD1]: 1.66. Then YGLQKNWPWGTKAFFSGLLPRP [KANK4], with 43.3; and “YGPGTGGAHPATEHVRVLVLFRSPLSRCNFCSSSPTPAPSFMLLFRTQPPCPVLVVSR [STMN3]”, with 7.57. YGPVGPAAVLHPTPLTPASCCK [WDR13]: the median enrichment was found to be 6.81. With “YGRDWHRLAFQHLLSPTLHSLLPCLSNKPNAACEAFFIFLFTLFLMLPTLPFRFFC [RSU1]”, the median enrichment stood at 10.2. As for “YGREARAAPAFLLQIWAAVARAVSPVAEPSGRCGNRRSSVAPVS [CPTP]”, the median enrichment was 7. Take YGRFY [OR5L1]: the median enrichment came out at 1.25.

For “YGRIMACLSPFLLQIKFSTHSFLLQIKFSTHSFFNTVL [OR2AG2]”, the median enrichment was 49.9. For YGRWEVSSLSLACSSSWT [REG3G], the median enrichment is 6.24. Turning to “YGSAKSLWDWKSGPGLPDRQPEDLPSTMHHGRGRSMKN [SLC39A14]”, the median enrichment was 0.591. The same measure for YGSRRILTHRKGAHGTQVKEVLLARYGGSRL [SMYD4]: 5.15; for YGTDGRRGPGTPGMGGPNP [GATA2]: 1.68; for YGTKPRRIPPQ [CA10]: 0.595. The same measure for YGVAQGAPGRGPGPRTL [TMEM38A]: 0.588; for YGWGRVAASFVPTGGSHNSFDL [ELP5]: 5.96.

In the case of YGWWQPGFWPRAPPPD [PHC2], the median enrichment was 2.07. The same measure for YHAPRLEGRNSRLQNRHEMVWPCDYTL [TRMT44]: 1.98. Take YHCESITFSLSCSWTFCTENPGI [CREBBP]: the median enrichment amounted to 33.7.
